Assay results taken from the DeepSol protein solubility set.

Experiment: soluble on expression in E. coli; label from the status in PepcDB or PDB records

| Sequence | soluble on expression in E. coli |
| --- | --- |
| MGSDKIHHHHHHMKKEADMIHPIANAPCSWGVDDPKNPNLPAWATVLKEAAQAGYRSIELGPWGYLPSDPASLRAALEQHQLSLVAGTIFDDLVSEAHFPTLVALTHQICRNLSQVAAAEPIPGRPFQPPYLVIIDFGNPERARFAGRGALAPRLNDKDWQRMMEHIIALSTLAWQEYGVRAVIHPHAGGSIEFADEIERLANDIPHDVAGLCLDTGHLYYAGMDPLDWLDRYYHRLDYLHFKDVDPQVYQRAIHEGIDFFTACAEGVMCPLGSGAIDYPAIKDFLARRGYQGWITIEQERDPRHAAGSLQAVTESLRYLRDVGF | not soluble |
| MKFLFYLSADNLEIARKEVLVLAERYGWVEDYQFEERLLLLDYAGEKFFERLAYTNEVTKIYDICSVSELEQVFSEIPVYDRLCCVRVKGGKGKTALERKLGALLWKRGAKVSVSNPEIVYKVYIQDDKCYVGLLEFERDTRQFFLRRPDRRPFLMPSAIKPKLARALVNLTGVLEGETLLDPMCGTGSFLIEAGLMGINPIGIDFIEKIVRGCRVNLEYYGIEGSVLLGDAKNLPLRDESVRGIATDYPYLRSTKAAGTLDELYSKTSEEFERVLKKGGRAAIVTNIDVESFFSNFEIEMKTEERVHGSLTRRIYLLRR | not soluble |
| MKKLIVDLDGTLTQANTSDYRNVLPRLDVIEQLREYHQLGFEIVISTARNMRTYEGNVGKINIHTLPIITEWLDKHQVPYDEILVGKPWCGHDGFYIDDRAVRPSEFASMNLEEIHQLFEKEKSCS | soluble |
| MSLKINAILDQSNASAEKVDAYQVQLTNGISEAKNIADEAGKEAVQIATDAGNQANETANQAMNNAKTAIMIAGNAVSTANNNKQEFDTLRNDFDQLVAEAGDSNPEIVQARTDTQGIKQATLANRLQIDLNDRMTKADGISLLAKPTTVKMKLDFNGKTAGNTATNANSYSTDFTAKILKKPTEVWEEVSQADYNKMASRDDEGVKTGSTQSGVIPQQLAAFNLVEAAKKLIPQMFETVTTDEAVAFIRQNVQFFTINQRVKAAAPNNQTIKIATYLPTTDNWVTQIQESAKEFGDFSIQINDQNFITDEGFIYLMSYTDSSNGVTPASLEVDYVGLHIGLSVDAQAVLAKSGFVQAEQLNTHMENQDNPHQVTAEQVGLGNVENYGFASDSEAVAGTLTSKYMHPKNVAEAIKGQAVTQTGDQEIAGVKNFVTMPTVNGVPLESSRMAIYEASGVGEVEAKYQAAFNKDNMKFVLIRVGNRVDAFVRCNLSDPTKLNNNLVKVFTVPTGYTLSTKITKGIWNLALTAMQYTFPQPNCAGLYEMGNQGILFGANRAGNIYLQGSWYTDDPFPTKEGHHHHHH | soluble |
| MSLALRSLIADARRLVVKVGSSLVTDDGRGLDQAAIARWAAQIAALRAAGKEVVLVSSGAIAEGMQRLGWTRRPKEIHELQAAAAVGQMGLAQVYESEFARHGIRTAQVLLTHGDLADRERYLNARSTLLTLLGLGVVPIINENDTVVTDEIKFGDNDTLGALVTNLIEGDALIILTDQRGLYTADPRKHPDARFVDEAQAGAPELEAMAGGAGSSIGKGGMLTKIVAAKRAAKSGAHTVIASGREADVLARLAGGEAIGTQLRAPTGRMAARKQWMIDHLQLRGRVVLDAGAVDKLTAGGKSLLPIGVTEVQGEFARGEVISCVDTAGREVARGLTNYSAAEARLIARKASSEIEAVLGYVSAAELVHRDNLVLLEGHHHHHH | soluble |
| MKKIHMIPAALLIGSLALVSCAPSQPTQNAQTVSSVMTETPTYTSSSRSVESTAGTIAASEEATMTLLENSSGDPGSDSGGARYSLNSLKVSEQAAANAVLKAVLNDVSYQEFADSSYLEITGTPSADGTWGISFGGPSESASVEFSDGSISFSPVDMTVPATRLPQMGAFYETLTEEQLGMLETGLAVSTVDSSQQEMLLDLVSNSIGLADTETTATAISKIRATLSETYLFGTPDGLTLALSGPHVDFEVSHQGSTAKITYRDPSTDTLTAEDRVDTASVAAAPPEVVLEHHHHHH | not soluble |
| MSFEEKTFKWLMNQKFYHGYLPREDLPYVLKKKGDFIFRVTERTVGKEQKKDIVLSIAWPTESVAMIDTKDIKNYLIERSANSVWLDLKISFHSIDALYNHYRKNELVHPNLRIKLGRPICLFFWEFKHSQINLIKKVGKGAYGEVFKGTVTRGNKTFNGAIKAMRKDLDAGNEKMKEVMAEARLMRSLNHPNIVRCRGIAVLEQPVYIVIEFINGGGLDSYLKKNSQTLTMDQKNRMAISAAWGIEFMHSHDIIHRDIAARNCLYDNKNLVKLSDFGLSRKGSVYRMKKAMKMPTKWLAPESLTTFTFSGASDVYTFGVLLYEIYTCQEPYLAVKAGEAKRYILSGAFPNFTKQAPPELNEIVKKSIYQLDPAKRDTMKVIVKKLETWLDVELVLDENEKPDIDPESNRFNGNMPIRVDSSTKKMRNDTVCIPPPETATVALPNSLPPITVSARSKNSRKSTLKRKKKKTSKDSSMTTTTTNTNESEPPADGQVISSETMSVANKMVSDAKGGSPEMLTPSLEELKPSSQENETFLNEKNSTAKN | not soluble |
| MGSDKIHHHHHHMLGLIKKKANTLLGIDISSTSVKLLELSRSGGRYKVEAYAVEPLPPNAVVEKNIVELEGVGQALSRVLVKAKTNLKSAVVAVAGSAVITKTIEMEAGLSEDELENQLKIEADQYIPYPLEEVAIDFEVQGLSARNPERVDVLLAACRKENVEVREAALALAGLTAKVVDVEAYALERSYALLSSQLGADTDQLTVAVVDIGATMTTLSVLHNGRTIYTREQLFGGRQLTEEIQRRYGLSVEEAGLAKKQGGLPDDYDSEVLRPFKDAVVQQVSRSLQFFFAAGQFNDVDYIVLAGGTASIQDLDRLIQQKIGTPTLVANPFADMALNGKVNAGALASDAPALMIACGLALRSFD | not soluble |
| MKYKIFASTTPQTEPVLQKLKQVLKGCEAVEKGFDYLFVLGGDGFFVSTVANYNCHNCRVVGINTGHLGFYTSFNEKDLDDNFLQKLQQCHFQRISLLEVSVNGQQHLVLNELAVYTNTAYPINIFIDGEAWEFYRGSGLLIGPRTGSTALAKSAKGAVIFPGIDVLQIIEMNPLLHPNQVTIQSPIILPKETQVEFVVKKAFNPQQFPTFYCDGRKLELPNADTTLALKLVQSTPMFNISLKTQDFINKLKSTFIKQS | soluble |
| MKYIVNKSHNPAFNIALEAYAFRELVEEDELFILWINEPAIIIGKHQNTIQEINKEYIDEHGIHVVRRLSGGGAVYHDLNNLNYTIISNKTAEGAFDFKTFSQPVIATLADLGVTANFTGRNDIEIDGKKICGNAQAYYKGRMMHHGCLLFDVDMTVLGDALKVSKDKIESKGVKSVRARVTNILNELPEKITVEEFSDKILAKMKETYPDMTEYVLSEDELAKIEQSAKEQFGSWDWTYGKAPEYTIERNVRYPAGKISTFANVENSIIKNLKIYGDFFGIKDVQDIENLLIGCKYEYRDVFERLKTIDTTQYFSRMTVEEVAKAIVS | not soluble |
| MGSDKIHHHHHHMKSVGQALENQGRVPRNTNDELIQMILADAQVAEFIKTHQLSQREINISMSKFNQFLIERQKFKNKDSQYIAKGYEPILVMNEGYADVSYLETRELIEAQKKQAISDRINLVNLPKSYRNIRMTDFDINNESRMKAMSQLLDFVETYPSYNHKGLYLYGDMGVGKSYLMAAMARELSERKGVSTTLLHFPSFAIDVKNAISSGTVKDEIDAVKSVPILILDDIGAEQATSWVRDEILQVILQHRMLEELPTFFTSNYSFNDLERKWANIKGSDETWQAKRVMERVRYLAIEFHLEGPNRR | not soluble |
| MHAFTTERLLIRPLISEDEHFYCYQYTDKKMMRIVGEPLTQEQASAAFHRALKANNLEQDTVRTWAIVDKAANDIIGTQALSWLATRQTTKPSSSPIEQVEIGIMLATRANGKLLPEEAVSAIMEYGFKQLNIGRINAFYANKNRATQRILKKIGYIFEPCLQDNTTDNGYQYFEQHQWSGVIITQLFPEEIEIKEPTVND | not soluble |
| MSITEDIDDLKTAIENNEPIRKGIEETMHRASQIRIKQRYNCAEQEVTQMRAPFLGFSVFVRFQSRARAHTIKIINEDEVEQMLASSPVPYS | not soluble |
| ITGTSTVGVGRGVLGDQKNINTTYSTYYYLQDNTRGNGIFTYDAKYRTTLPGSLWADADNQFFASYDAPAVDAHYYAGVTYDYYKNVHNRLSYDGNNAAIRSSVHYSQGYNNAFWNGSQMVYGDGDGQTFIPLSGGIDVVAHELTHAVTDYTAGLIYQNESGAINEAISDIFGTLVEFYANKNPDWEIGEDVYTPGISGDSLRSMSDPAKYGDPDHYSKRYTGTQDNGGVHINSGIINKAAYLISQGGTHYGVSVVGIGRDKLGKIFYRALTQYLTPTSNFSQLRAAAVQSATDLYGSTSQEVASVKQAFDAVGVK | soluble |
| MTQKNESQRQDRVAAWSRHAESELSAYQSAAKLDLQAQKPRDHKLCASLEEAIRRSGLRDGMTVSFHHAFRGGDLTINLVMETIAKMGFKNLTLASSSLSDCHAPLVEHIRNGVVSRIYTSGLRGPLAEEISRGLLAEPVQIHSHGGRVHLVQSGELNIDVAFLGVPSCDEFGNANGYTGKACCGSLGYAMVDADSAKQVVMLTEQLLPYPHNPASIAQDQVDLIVQIEEVGDANKIGAGATRMTTNPRELLIARSAAEVIAHSGYFNEGFSLQTGTGGASLAVTRFLEDKMRSRNIVANFALGGITATMVDLHEKGLIRKLLDVQSFDRNAAQSLARNPNHIEISANQYANWGSKGASVDRLDVVVLSALEVDTHFNVNVLTGSDGVLRGASGGHCDTAVAAALSIIVAPLVRGRIPTLVDNVTTCVTPGSSVDILVTDHGIAVNPARPELAERLKAAGMKVVSIEWLRERAQLLTGQPRPIEFTDRVIAVVRYRDGSVIDVVHQVKE | not soluble |
| MQTASVPAGIAERRTRAWAPYIDAKLGFRNHWYPVRLSAEVAEASPVPVQLLGEKVLLNRVDGVVHAIADRCLHRGVTLSDKVECYSKATISCWYHGWTYRWDNGKLVDILTNPTSVQIGRHALKTYPVREEKGLVFLFVGDQEPHDLAEDVPPGFLDADLAVHGQHRVVDANWRMGVENGFDAGHVFIHKSSILLDGNDIALPLGFAPGDPEQLTRSVTGEGAPKGVFDLLGEHSVPIFEATIEGQPAIQGHMGSKMVAISISVWLPGVLKVDPFPDPTLTQFEWYVPIDEGHHLYLQMLGRRVGSEEEARSFEAEFREKWVELALNGFNDDDILARRSMEPFYADDRGWREEVLFESDRAIIEWRRLASQYNRGIQTRDVRHHHHHH | soluble |
| MDPFDEIVIKNYLSFPLVLQKLLSIKKLRRIEFFSQNMATHIVFDELGMTTKGFRPDKEVEKLLLKLELIDKRIERTLFRQKHFERFWATLKPLEQQLLIRRFKYKEEVNCPHRLIESVLDEIEEIETAICLMENIELEENELSDDVEENLERMCDFFAL | not soluble |
| MNSQNSQKSSSFDDFAGQVVIYTEIGNSKCAKGRDLLHREGIPYTDVSLDSFPQHSQEIFDRTGTDVLPQIFFNNIYIGHETDLERVIGETNKWESLVEHVRREKCTNGGPIVPHPMNAIGFEEYETENNNKCCDEVLWVPDEYSKLVRDMKNAQLIKNNRVKLKVYRNSFKGEELVEWLMRQKGIKRSEALEIGQELIDRHVGQQTSKESGMTFSPDRYYQLVEDDENKPLNAGEDDGDKKQSFPVAECNEKFSKLLKPIFNDILTDDNQSIIYGGLSTNDNFTRYLQFSRELNHVTFEGSTSDDRLTFFINVYNMMLIHITLKHGPPIGIWQRRKLVNGTYYLIGGHRYALHSIINGILRGNKKGPGMLWKAFGKQDARLPISLAVCDPLIYFSLCSGSKTTPPLRVYHSKSIHQEMRENARQTLLRGDKFLRVDMKKNVIHLGKTFKWFSDDFGGSTEKILQWILDVLDTNESDKKHNLQKLFFTGEYSIEYIPYDWSTNGRMDEKEREDIDGGGGGGGDVRRTKTIE | not soluble |
